Source: patent publication US20210386829A1, “COMPOSITIONS AND METHODS FOR MODULATING CGRP SIGNALING TO REGULATE INNATE LYMPHOID CELL INFLAMMATORY RESPONSES” (The Broad Institute, Inc., priority 2018, published 2021)

Tests used:
lung ILCs [1] = assay: culture of sort-purified lung ILCs with IL-7, IL-33 or IL-25+NMU with or without CGRP (qPCR, LegendPlex, intracellular cytokine staining); assay type: cell-based, mouse; settings: short-term (8 hours) IL-33 alone, no CGRP
Method: (§1) ILC in vitro culture. For in vitro experiments 5,000 ILCs/well were cultured in a 96 well round bottom plate with 20 ng/ml IL-7 (R&D Systems), 200 ng/ml IL-25 (R&D Systems) or 20 ng/ml, 2 ng/ml or 0.2 ng/ml IL-33 (BioLegend) with or without 1 μg/ml Neuromedin U (US Biological). In some cases purified CD90.2^+ lung cells were first labeled with CellTrace Violet (Thermo Fisher Scientific), then sorted as described above, and cultured for 3 days under the indicated conditions.
Quantitative real-time PCR. RNA was isolated using RNeasy Plus Mini Kit (Qiagen) and reverse transcribed to cDNA with iScript cDNA Synthesis Kit (Bio-Rad). Gene expression was analyzed by quantitative real-time PCR on a ViiA7 System (Thermo Fisher Scientific) using TaqMan Fast Advanced Master Mix (Thermo Fisher Scientific) with the following primer/probe sets: Il5 (Mm00439646_m1), Il13 (Mm00434204_m1), Il17rb (Mm00444709_m1), Nmur1 (Mm04207994_m1), Nmur2 (Mm00600704_m1), Nmu (Mm00479868_m1) and Actb (Applied Biosystems). Expression values were calculated relative to Actb detected in the same sample by duplex qPCR.
Cytokine quantification. Cytokine concentrations in BAL fluid, lung and supernatant of in vitro ILC cultures were analyzed by the LegendPlex Mouse Th Cytokine Panel (13-plex) (BioLegend) according to the manufacturer's instructions and analyzed on a FACS Calibur (BD Biosciences).
Culture of innate lymphoid cells. Sort-purified innate lymphoid cells (ILCs) were cultured under sterile conditions in complete medium in a humidified incubator at 37° C. and 10% CO2. ILCs were plated at a density of 3,000-5,000 ILCs per well in a 96 well round-bottom plate in cell culture medium with 20 ng/ml IL-7. Depending on the experiment, different combinations of 200 ng/ml IL-25, 200 ng/ml IL-33, 1 ug/ml NMU and 100 nM CGRP were added either at start or after overnight culture with 20 ng/ml IL-7. […]
For flow cytometric analysis, lung cells were transferred into a 96 well V-bottom plate and stained with surface antibodies for 20 min at 4° C. in the dark. Cells were washed twice with DPBS containing 2% fetal bovine serum and transferred into 1.2 ml tubes for analysis by flow cytometry. For intracellular cytokine staining, cells were incubated in complete cell culture medium with 50 ng/ml phorbol 12-myristate 13-acetate (Sigma-Aldrich), 1 uM ionomycin (Sigma-Aldrich) and GolgiStop (Cat #554724; BD Biosciences) in a humidified incubator at 37° C. and 10% CO2. After 5 hours, cells were transferred into 96 well V-bottom plate, stained with Fixable Viability Dye eFluor 506 (Cat #65-0866-14; Thermo Fisher) and surface antibodies for 20 min at 4° C. in the dark and washed twice with DPBS containing 2% fetal bovine serum. Then, cells were incubated with BD Cytofix/Cytoperm Buffer (Cat #51-2090KZ; BD Biosciences) for 20 min, followed by a wash with BD Perm/Wash Buffer (Cat #51-2091KZ; BD Biosciences). Subsequently, cells were incubated with antibodies targeting intracellular proteins diluted in BD Perm/Wash Buffer for 20 min and after two wash steps, transferred into 1.2 ml tubes for analysis by flow cytometry. For ki67 staining, cells were stained for surface antibodies as described above, fixed with a solution of Fixation/Permeabilization Concentrate (Cat #00-5123-43; Invitrogen) and Fixation/Perm Diluent (Cat #00-5223-56; Invitrogen) for 20 min, washed with Permeabilization Buffer (Cat #00-8333-56; Invitrogen). Then, cells were incubated with ki67 antibody diluted in Permeabilization Buffer for 20 min, washed and transferred into FACS tubes. Cells were analyzed on a BD LSRFortessa (BD Biosciences) flow cytometer with 5 lasers (355 nm, 405 nm, 488 nm, 561 nm and 640 nm). Data was analyzed using FlowJo v10.5.0 software and cell populations were gated as described previously (Wallrapp 2017).
RNA isolation and cDNA synthesis. […]

lung ILCs [2] = assay: CellTrace Violet proliferation assay of sort-purified lung ILCs; assay type: cell-based, mouse; settings: 3 days
Method: as §1
Proliferation assay. Lung cells were isolated and enriched for CD90.2 cells as described above, followed by labeling with CellTrace Violet (Cat #C34557; Thermo Fisher Scientific) according to manufacturer's instructions and subsequently stained with antibodies. After 3-day culture of sort-purified ILCs with 20 ng/ml IL-7 either alone or in combination with 200 ng/ml IL-33, 100 pM CGRP or 100 nM CGRP followed by staining, expression of CellTrace Violet in live (7AAD−) ILCs was analyzed on a BD LSRFortessa (BD Biosciences).

B1: IL-33: alarmin cytokine which activates ILC2s and induces their proliferation; used as stimulus (protein, UniProt Q8BVZ5 1-266, looked up)
Interleukin-33: MRPRMKYSNSKISPAKFSSTAGEALVPPCKIRRSQQKTKEFCHVYCMRLRSGLTIRKETSYFRKEPTKRYSLKSGTKHEENFSAYPRDSRKRSLLGSIQAFAASVDTLSIQGTSLLTQSPASLSTYNDQSVSFVLENGCYVINVDDSGKDQEQDQVLLRYYESPCPASQSGDGVDGKKLMVNMSPIKDTDIWLHANDKDYSVELQRGDVSPPEQAFFVLHKKSSDFVSFECKNLPGTYIGVKDNQLALVEEKDESCNNIMFKLSKI
frequency of IL-13-positive ILC2s (intracellular cytokine staining) (lung ILCs [1]): ~13% | ILC2 proliferation (lung ILCs [2]; IL-7+IL-33 vs IL-7 alone, absent CGRP): induced significant ILC2 proliferation | IL-33-activated ILCs that divided at least once (lung ILCs [2]; IL-7+IL-33 without CGRP): approximately 55%
